According to patent publication US20070184522A1, “Cell death modulation via antagonists of Fasl and Fas activation” (University of Pittsburgh of the Commonwealth System of …, priority 2004, published 2007):

Target: T1, Fas-Fc / FasL binding (Mus musculus, UniProt P25446)
T1 construct: purchased R&D
T1 sequence (P25446 22-169 limits assumed): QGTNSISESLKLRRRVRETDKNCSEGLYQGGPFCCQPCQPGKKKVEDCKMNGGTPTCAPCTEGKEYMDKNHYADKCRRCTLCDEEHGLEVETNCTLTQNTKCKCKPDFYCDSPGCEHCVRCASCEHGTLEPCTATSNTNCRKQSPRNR
Experiment: Competition pull down with Fas-Fc, recombinant AlphaMet and recombinant FasL
Experimental: This antibody also recognizes Fas-Fc which is also tagged at the C-terminus by His. In FIG. 2b, a fixed amount of purified recombinant Fas-ligand was added to Fas-Fc in the absence or presence of increasing amounts of AlphaMet as indicated. Samples were subjected to pull down using proteinA agarose followed by Western blot using a polyclonal rabbit anti-FasL antibody. […] Fas ligand (1 μg/ml) was coated in the wells of a microtiter plate (triplicate wells) then 1 μg/ml of Fas-Fc was added in the absence or presence of an increasing amount of the indicated polypeptide. A 13 mer YLGA polypeptide derived from FasL also was synthesized and used. The control peptide was a scrambled 13 mer. Anti human […] conjugates were used to detect the bound Fas-Fc. […] One-way ANOVA was carried out for determination of statistical significance. […] Cells (3×10^5) were plated in 24-well plates having Poly-L-Lysine pre-treated cover glass. 2 μg/ml of Fas ligand was added and the cells were incubated for 30 min on ice. Cells were then washed by PBS twice, and were subjected to immunostaining using anti-Fas ligand antibody and fluorescent microscopy. In Frame A, Fas ligand was not added, in B, only Fas ligand was added, in C-F, Fas ligand was added with different polypeptides as follows: AlphaMet, 12 mer YLGA, control peptide, and YLGA mutated AlphaMet, respectively. […]

FasL binding to Fas in pull down (fixed FasL, increasing amounts of AlphaMet): blocked the FasL binding to Fas
B1: alpha subunit of Met (AlphaMet), amino acid residues 1 to 306, His-tagged (receptor, mouse)
chain: MKAPTVLAPGILVLLLSLVQRSHGECKEALVKSEMNVNMKYQLPNFTAETPIQNVVLHGHHIYLGATNYIYVLNDKDLQKVSEFKTGPVLEHPDCLPCRDCSSKANSSGGVWKDNINMALLVDTYYDDQLISCGSVNRGTCQRHVLPPDNSADIQSEVHCMFSPEEESGQCPDCVVSALGAKVLLSEKDRFINFFVGNTINSSYPPGYSLHSISVRRLKETQDGFKFLTDQSYIDVLPEFLDSYPIKYIHAFESNHFIYFLTVQKETLDAQTFHTRIIRFCSVDSGLHSYMEMPLECILTEKRRKRHHHHHH
binding of AlphaMet to Fas in presence of FasL (increasing amounts of FasL): completely abrogated by increasing amounts of FasL
